This note sets out measurements from patent publication US6958236B2, “Control of gene expression in plants” (priority 2000, dated 2005).

The assay has as its system pCGS154 reporter. Nature of the assay: Transient transfection of S2 Drosophila cells with luciferase reporter and EcR receptor plasmids. Format: cell-based. As to the method:
An in vivo cell based assay is designed to measure transcriptional activation by the receptors of a reporter plasmid. S2 Drosophila cells (ATCC CRL-1963) are transiently transfected with luciferase reporter and receptor expression plasmids using the calcium phosphate precipitation procedure (Di Nocera and David (1983) PNAS 80, 7095-7098). S2 cells are plated in 96 well format at a density of 2×10^5 in 166.6 μl of Schneider's Drosophila media supplemented with antibiotics and 10% heat inactivated fetal bovine serum (GIBO-BRL). The following day, 33.4 μl of a calcium phosphate precipitate containing 3-6 ng of pCGS154 reporter plasmid, 3-6 ng of EcR receptor plasmid along with salmon sperm DNA to a total of 400 ng DNA per well is added. Chemical ligands are added 16-24 hours after DNA addition to the cells. Cells are then harvested and extracted 24 hours after chemistry addition following the procedures for the luciferase assay by centrifuging and resuspending the cell pellets in 100 μl of cell culture lysis reagent (Promega). Luciferase activity is quantitated using chemiluminescence (Promega) using an analytical luminescence model 2001 luminometer.
S2 cells contain Drosophila EcR and USP. The endogenous USP can be used as the heterodimerization partner for EcR or exogenous USP expression plasmid can be added to the assay.
To compare the activities of Manduca and Drosophila EcR, S2 cells are transiently transfected using the above procedure with the reporter plasmid pCGS 154 and either full-length Drosophila EcR, DDV, full-length Manduca EcR, or MMV. Tebufenozide at 0.2 µM and 2 μM is used as the chemical ligand. Luciferase assays are performed as described above. All of the results are normalized as a ratio of activity to the light unit value for the pCGS154 reporter without chemistry.
The activities of the EcR-VP16 chimeras are compared by transiently transfecting S2 cells as described in Example 3. Tebufenozide is added to the cells at 0.2 μM concentration. Results are expressed as fold activation, a ratio of the activity of the constructs with chemistry added as compared to activity of the constructs without chemistry. All results are normalized to the luciferase activity of the pCGS154 reporter without receptor addition.
The activities of the EcR-VP16 chimeras are compared by transiently transfecting S2 cells as in Example 3. Tebufenozide is added to the cells at 0.2 μM concentration. Results are expressed as fold activation of constructs with chemistry as compared to without chemistry. All results are normalized to the luciferase activity of the pCGS154 reporter without receptor.
The activities of the EcR-VP16 chimeras are compared by transiently transfecting S2 cells as in Example 3. Tebufenozide is added to the cells at 0.2 μM concentration. Results are expressed as fold activation of constructs with chemistry as compared to without chemistry addition. All results are normalized to the luciferase activity of the pCGS154 reporter without receptor.
In general terms: A reporter such as luciferase makes a cellular process visible.

[1] abbreviates: Example 6, 0.2 μM tebufenozide vs without chemistry, normalized to pCGS154 reporter without receptor.

B1: LLV: EcR chimera: Locusta migratoria C+D and E domains, VP16; SEQ ID NO:81-82 (protein)
chain: MGREDLSPLSSLNGYSADSCDAKKKKGAAPRQQEELCLVCGDRASGYHYNALTCEGCKGFFRRSITKNAVYQCKYGNNCEIDMYMRRKCQECRLKKCLTVGMRPECVVPEYQCAVKRKEKKAQKDKDKPNSTTNGSPEVMMLKDIDAKVEPERPLSNGIKPVSPEQEELIHRLVYFQNEYESPSEEDLRRVTSQPTEGEDQSDVRFRHITEITILTVQLIVEFAKRLPGFDKLLREDQIALLKACSSEVMMFRMARRYDVNSDSILFANNQPYTKDSYNLAGMGETIEDMLRFCRQMYAMKVDNAEYALLTAIVIFSERPSLVEGWKVEKIQEIYLEALKAYVDNRRRPKSGTIFAKLLSVLTELRTLGNQNSEMCFSLKLKNKKLPPFLAEIWDVIPKLAPPTDVSLGDELHLDGEDVAMAHADALDDFDLDMLGDGDSPGPGFTPHDSAPYGALDMADFEFEQMFTDALGIDEYGG
On to B1, for which, for the setting “Example 6, third column (LLV, LMV), 0.2 μM tebufenozide”, the “Fold Activation With Chemistry” value was 0.47 fold.

B2: MBV: EcR chimera: Manduca sexta C+D domains, black cutworm (Agrotis ipsilon) E domain, VP16; SEQ ID NO:65-66 (protein)
chain: MGREELSPASSINGCSTDGEPRRQKKGPAPRQQEELCLVCGDRASGYHYNALTCEGCKGFFRRSVTKNAVYICKFGHACEMDMYMRRKCQECRLKKCLAVGMRPECVVPESTCKNKRREKEAQREKDKLPVSTTTVDDHMPAIMQCDPPPPEAARIHEVVPRFLTEKLMEQNRLKNVTPLSANQKSLIARLVWYQEGYEQPSEEDLKRVTQTWQSDEDEEESDMPFRQITEMTILTVQLIVEFAKGLPGFAKISQSDQITLLKACSSEVMMLRVARRYDAATDSVLFANNQAYSRDNYRKAGMSYVIEDLLHFCRCMYSMMMDNVHYALLTAIVIFSDRPGLEQPLLVEEIQRYYLNTLRVYILNQNSASPRCPVVFAKILGILTELRTLGMQNSNMCISLKLKNRKLPPFLEEIWDVESRGKLAPPTDVSLGDELHLDGEDVAMAHADALDDFDLDMLGDGDSPGPGFTPHDSAPYGALDMADFEFEQMFTDALGIDEYGG
Regarding B2, the “Fold Activation With Chemistry Assay #1” value reads like this: (Example 7, 0.2 μM tebufenozide) 215.7 fold; (Example 8, 0.2 μM tebufenozide) 559.1 fold. For the same molecule, the “Fold Activation With Chemistry Assay #2” value is 211.1 fold (Example 7, 0.2 μM tebufenozide) and 866.7 fold (Example 8, 0.2 μM tebufenozide).

B3: MLV: EcR chimera: Manduca sexta C+D domains, Locusta migratoria E domain, VP16; SEQ ID NO:85-86 (protein)
chain: MGREELSPASSINGCSTDGEPRRQKKGPAPRQQEELCLVCGDRASGYHYNALTCEGCKGFFRRSVTKNAVYICKFGHACEMDMYMRRKCQECRLKKCLAVGMRPECVVPESTCKNKRREKEAQREKDKLPVSTTTVDDHMPAIMQCDPPPPEAARIHEVVPRFLTEKLMEQNRLKNVTPLSANQKSLIARLVWYQNEYESPSEEDLRRVTSQPTEGEDQSDVRFRHITEITILTVQLIVEFAKRLPGFDKLLREDQIALLKACSSEVMMFRMARRYDVNSDSILFANNQPYTKDSYNLAGMGETIEDMLRFCRQMYAMKVDNAEYALLTAIVIFSERPSLVEGWKVEKIQEIYLEALKAYVDNRRRPKSGTIFAKLLSVLTELRTLGNQNSEMCFSLKLKNKKLPPFLAEIWDVIPKLAPPTDVSLGDELHLDGEDVAMAHADALDDFDLDMLGDGDSPGPGFTPHDSAPYGALDMADFEFEQMFTDALGIDEYGG
Consider B3, for which, under “Example 7, 0.2 μM tebufenozide”, the “Fold Activation With Chemistry Assay #1” value is 1.7 fold and the “Fold Activation With Chemistry Assay #2” value is listed as 1.0 fold.

B4: MEV: EcR chimera: Manduca sexta C+D domains, European corn borer (Ostrinia nubilalis) E domain, VP16; SEQ ID NO:67-68 (protein)
chain: MGREELSPASSINGCSTDGEPRRQKKGPAPRQQEELCLVCGDRASGYHYNALTCEGCKGFFRRSVTKNAVYICKFGHACEMDMYMRRKCQECRLKKCLAVGMRPECVVPESTCKNKRREKEAQREKDKLPVSTTTVDDHMPAIMQCDPPPPEAARIHEVVPRFLTEKLMEQNRLKNVTPLSANQKSLIARLVWYQDGYEQPSEEDLKRVTQTWQSADEEDEDSDMPFRQITEMTILTVQLIVEFAKGLPGFSKISQPDQITLLKACSSEVMMLRVARRYDAVSDSVLFANNQAYTRDNYRKAGMAYVIEDLLHFCRCMYSMSMDNVHYALLTAIVIFSDRPGLEQPQLVEEIQRYYLNTLRVYIMNQHSASPRCAVIYAKILSVLTELRTLGMQNSNMCISLKLKNRKLPPFLEEIWDVKLAPPTDVSLGDELHLDGEDVAMAHADALDDFDLDMLGDGDSPGPGFTPHDSAPYGALDMADFEFEQMFTDALGIDEYGG
As to B4, where the note is “Example 7, 0.2 μM tebufenozide”, the “Fold Activation With Chemistry Assay #1” value was 363.7 fold and the “Fold Activation With Chemistry Assay #2” value is on record as 131.5 fold.

B5: MFV: EcR chimera: Manduca sexta C+D domains, fall armyworm (Spodoptera frugiperda) E domain, VP16; SEQ ID NO:69-70 (protein)
chain: MGREELSPASSINGCSTDGEPRRQKKGPAPRQQEELCLVCGDRASGYHYNALTCEGCKGFFRRSVTKNAVYICKFGHACEMDMYMRRKCQECRLKKCLAVGMRPECVVPESTCKNKRREKEAQREKDKLPVSTTTVDDHMPAIMQCDPPPPEAARIHEVVPRFLTEKLMEQNRLKNVTPLSANQKSLIARLVWYQEGYEQPSEEDLKRVTQTWQLEEEEEEETDMPFRQITEMTILTVQLIVEFAKGLPGFSKISQSDQITLLKASSSEVMMLRVARRYDAATDSVLFANNQAYTRDNYRKAGMSYVIGDLLHFCRCMYSMSMDNVHYALLTAIVIFSDRPGLEQPLLVEEIQRYYLKTLRVYILNQYSASPRCAVLFGKILGVLTELRTLGTQNSNMCISLKLKNRKLPPFLEEIWDVKLAPPTDVSLGDELHLDGEDVAMAHADALDDFDLDMLGDGDSPGPGFTPHDSAPYGALDMADFEFEQMFTDALGIDEYGG
Consider B5, for which, under “Example 7, 0.2 μM tebufenozide”, the “Fold Activation With Chemistry Assay #1” value worked out at 159.9 fold and the “Fold Activation With Chemistry Assay #2” value stood at 175.4 fold.

B6: MDV: EcR chimera: Manduca sexta C+D domains, Drosophila melanogaster E domain, VP16 activation domain; SEQ ID NO:63-64 (protein)
chain: MGREELSPASSINGCSTDGEPRRQKKGPAPRQQEELCLVCGDRASGYHYNALTCEGCKGFFRRSVTKNAVYICKFGHACEMDMYMRRKCQECRLKKCLAVGMRPECVVPESTCKNKRREKEAQREKDKLPVSTTTVDDHMPAIMQCDPPPPEAARIHEVVPRFLTEKLMEQNRLKNVTPLSANQKSLIARLVWYQDGYEQPSEEDLRRIMSQPDENESQTDVSFRHITEITILTVQLIVEFAKGLPAFTKIPQEDQITLLKACSSEVMMLRMARRYDHSSDSIFFANNRSYTRDSYKMAGMADNIEDLLHFCRQMFSMKVDNVEYALLTAIVIFSDRPGLEKAQLVEAIQSYYIDTLRIYILNRHCGDSMSLVFYAKLLSILTELRTLGNQNAEMCFSLKLKNRKLPKFLEEIWDVHAIPPKLAPPTDVSLGDELHLDGEDVAMAHADALDDFDLDMLGDGDSPGPGFTPHDSAPYGALDMADFEFEQMFTDALGIDEYGG
On to B6, for which, under setting [1], the “Assay # 1 Fold Activation With Chemistry” value is recorded as 1.20 fold and the “Assay # 2 Fold Activation With Chemistry” value was found to be 1.18 fold. Also, under “Example 7, 0.2 μM tebufenozide”, the “Fold Activation With Chemistry Assay #1” value is on record as 1.1 fold and the “Fold Activation With Chemistry Assay #2” value was determined as 1.1 fold.
